Experimental data taken from US20190367617A1 (AMPSOURCE BIOPHARMA SHANGHAI, published 2019).

Key:
[1] = biological target: T1, mouse PD-1/His (Sino Biological Inc.) (mouse, UniProt Q02242 25-167); test: indirect ELISA, mouse PD-1/His coated at 0.1 µg/mL, HRP goat anti-mouse IgG
T1 construct: Bought protein; not shown: His tag
T1 sequence (looked up): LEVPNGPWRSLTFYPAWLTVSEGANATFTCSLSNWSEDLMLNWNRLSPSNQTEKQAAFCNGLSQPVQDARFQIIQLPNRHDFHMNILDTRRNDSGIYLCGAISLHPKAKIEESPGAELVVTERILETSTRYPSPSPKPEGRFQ
Protocol: (§1) Human PD-1/His, human ICOS/Fc, human CTLA4/His, human CD28/Fc, cynomolgus monkey PD-1/Fc, and mouse PD-1/His (all from Sino Biological Inc., Beijing, China) were diluted with PBS buffer to 0.1 μg/mL, and added to the 96-well plate at a volume of 100 μL/well and placed at 16° C. for 16 to 20 h. The PBS buffer was aspirated from the 96-well plate, and the plate was washed once with PBST (PBS containing 0.05% Tween 20, pH 7.4). 200 μL of PBST/1% no-fat milk was added to each well and incubated at room temperature for 1 h for blocking. The blocking solution was removed and the plate was washed 3 times with PBST. 100 μL of the anti-PD-1 antibody to be tested was added to each well, and incubated at room temperature for 1.5 h. The reaction solution was removed and the plate was washed 3 times with PBST. 50 μL of the HRP-labeled goat anti-mouse IgG secondary antibody (The Jackson Laboratory) diluted (dilution ratio 1:4000) was added to each well. Incubated at room temperature for 1 h. The plate was washed 3 times with PBST. 100 μL of the TMB was added to each well and incubated at room temperature for 5-10 min 50 μL of 0.2 M sulfuric acid was added to each well to terminate the reaction. Absorbance values were read at dual wavelengths of 450/620 nm in a microplate reader.

[2] = biological target: T2, human PD-1/His (Sino Biological Inc.) (human, UniProt Q15116 25-170); test: indirect ELISA, human PD-1/His coated at 0.1 µg/mL, HRP goat anti-mouse IgG
T2 construct: extracellular domain; Bought protein; also called extracellular domain fragment of PD-1 protein containing His tag; not shown: His tag
T2 sequence (Q15116 25-170): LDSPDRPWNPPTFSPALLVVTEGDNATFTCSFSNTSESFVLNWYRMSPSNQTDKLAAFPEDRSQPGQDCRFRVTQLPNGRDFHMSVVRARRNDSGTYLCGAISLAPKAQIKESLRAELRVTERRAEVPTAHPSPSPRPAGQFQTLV
Protocol: as §1

[3] = biological target: T2, human PD-1/His (Sino Biological Inc.); test: BLI (Octet), human PD-1/His on Ni-NTA sensor, antibody 3.125-100 nM
Description: We used the bio-layer interferometry (BLI) technique to characterize the binding kinetics and affinity of purified murine monoclonal antibodies. According to the standard procedure, the Octet molecular interaction instrument (ForteBio Octet RED & QK system, PALL corp.) was operated. […] The antigen-antibody association and dissociation kinetics were then tracked.

[4] = biological target: T3, Human PD-1 (Sino Biological Inc., Beijing, China) (human, UniProt Q15116 25-167); test: indirect ELISA, human PD-1 coated at 0.1 µg/mL
T3 construct: also called hPD-1
T3 sequence (Q15116 25-167 limits assumed): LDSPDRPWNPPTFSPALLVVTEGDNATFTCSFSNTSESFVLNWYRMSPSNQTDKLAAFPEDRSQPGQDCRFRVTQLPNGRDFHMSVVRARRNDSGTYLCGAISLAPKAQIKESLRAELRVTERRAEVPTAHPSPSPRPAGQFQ
Protocol: The PBS buffer was aspirated from the 96-well plate, and the plate was washed once with PBST (PBS containing 0.05% Tween 20, pH 7.4). 200 μL of PBST/1% no-fat milk was added to each well and incubated at room temperature for 1 h for blocking. The blocking solution was removed and the plate was washed 3 times with PBST. […] The reaction solution was removed and the plate was washed 3 times with PBST. […] The plate was washed 3 times with PBST.

[5] = biological target: T4, human ICOS/Fc (Sino Biological Inc.) (human, UniProt Q9Y6W8 21-141, limits assumed); test: indirect ELISA, human ICOS/Fc coated at 0.1 µg/mL, HRP goat anti-mouse IgG
T4 construct: Bought protein; not shown: Fc
T4 sequence (looked up): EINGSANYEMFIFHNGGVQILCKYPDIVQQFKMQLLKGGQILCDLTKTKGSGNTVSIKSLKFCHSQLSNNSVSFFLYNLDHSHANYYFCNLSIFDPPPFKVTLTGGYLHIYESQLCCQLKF
Protocol: as §1

[6] = biological target: T5, human CD28/Fc (Sino Biological Inc.) (human, UniProt P10747 19-152); test: indirect ELISA, human CD28/Fc coated at 0.1 µg/mL, HRP goat anti-mouse IgG
T5 construct: Bought protein; not shown: Fc
Protocol: as §1

[7] = biological target: T6, cynomolgus monkey PD-1/Fc (Sino Biological Inc.) (cynomolgus monkey, UniProt B0LAJ3 25-170); test: indirect ELISA, cynomolgus monkey PD-1/Fc coated at 0.1 µg/mL, HRP goat anti-mouse IgG
T6 construct: Bought protein
T6 sequence (B0LAJ3 entry or part of it limits assumed): as the sequence (Q15116 25-170) above, with D2E, P10A, V19L, T35A, Q75R, T144A counted along it
Protocol: as §1

[8] = biological target: T7, human CTLA4/His (Sino Biological Inc.) (human, UniProt P16410 36-162, limits assumed); test: indirect ELISA, human CTLA4/His coated at 0.1 µg/mL, HRP goat anti-mouse IgG
T7 construct: Bought protein; not shown: His tag
T7 sequence (P16410 36-162 limits assumed): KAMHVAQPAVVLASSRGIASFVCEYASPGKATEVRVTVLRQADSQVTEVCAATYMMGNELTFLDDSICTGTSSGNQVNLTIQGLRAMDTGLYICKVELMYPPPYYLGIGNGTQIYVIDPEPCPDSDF
Protocol: as §1

B1: murine monoclonal antibody AB12M1 (antibody, mouse IgG2b, V domains shown)
VH: EVKLVESGGGLVKPGGSLKLSCAASGFTFSSYGMSWVRQTPEKRLEWVATISGGGRDTYYPDSVKGRFTISRDNAKNNLYLQMSSLRSEDTALYYCARQKDTSWFVHWGQGTLVTVSA
VL: not shown
notes: subclass identified as mouse IgG2b (Kappa), purified from hybridoma supernatant; also called antibody of hybridoma clone #32
- binding result [1]: no binding (tested: 10 µg/mL)
- EC50 (read off the curve) [2]: ~4 ng/mL
- Kd [3]: < 1 pM
- koff [3]: < 1e-07 s⁻¹
- kon [3]: 109000 M⁻¹ s⁻¹
- EC50 [4]: ~2 ng/mL
- binding result [5]: no binding (tested: 10 µg/mL)
- binding result [6]: no binding (tested: 10 µg/mL)
- EC50 (read off the curve) [7]: ~3 ng/mL
- binding result [8]: no binding (tested: 10 µg/mL)
